{"source": "patent US20100104550A1", "about": "(priority 2006, published 2010)", "molecules": {"B1": {"name": "EGF-SubA: fusion protein (SEQ ID NO:13): Cys-tag, linker, human EGF, linker, 326 amino acid SubA fragment (protein)", "chain": "MKESCAKKFQRQHMDSGGGGSGGGGSGGGGSMGNSDSECPLSHDGYCLHDGVCMYIEALDKYACNCVVGYIGERCQYRDLKWWELRSMADIGSEKPWYFDAIGLTETTMSLTDKNTPVVVSVVDSGVAFIGGLSDSEFAKFSFTQDGSPFPVKKSEALYIHGTAMASLIASRYGIYGVYPHALISSRRVIPDGVQDSWIRAIESIMSNVFLAPGEEKIINISGGQKGVASASVWTELLSRMGRNNDRLIVAAVGNDGADIRKLSAQQRIWPAAYHPVSSVNKKQDPVIRVAALAQYRKGETPVLHGGGITGSRFGNNWVDIAAPGQNITFLRPDAKTGTGSGTSEATAIVSGVLAAMTSCNPRATATELKRTLLESADKYPSLVDKVTEGRVLNAEKAISMFCKKNYIPVRQGRMSEEL", "modifications": "fusion protein of subA and human EGF with cys tag consisting of SEQ ID NOS 7 to 12"}}, "key": {"MDA231luc cells [1]": {"test_system": "MDA231luc cells", "type": "cell-based, human"}, "EGFR": {"biological_target": "EGFR (Homo sapiens, UniProt P00533)", "type": "cell-based, rat"}, "MDA231luc cells [2]": {"test_system": "MDA231luc cells", "type": "cell-based, human", "remark": "listed apart in the source"}, "α-fodrin": {"test_system": "α-fodrin", "type": "cell-based, human"}, "MDA231luc-Dox cells": {"test_system": "MDA231luc-Dox cells", "type": "cell-based, human"}, "GRP78/BiP": {"biological_target": "GRP78/BiP (Homo sapiens, UniProt P11021)", "sequence (P11021 19-654)": "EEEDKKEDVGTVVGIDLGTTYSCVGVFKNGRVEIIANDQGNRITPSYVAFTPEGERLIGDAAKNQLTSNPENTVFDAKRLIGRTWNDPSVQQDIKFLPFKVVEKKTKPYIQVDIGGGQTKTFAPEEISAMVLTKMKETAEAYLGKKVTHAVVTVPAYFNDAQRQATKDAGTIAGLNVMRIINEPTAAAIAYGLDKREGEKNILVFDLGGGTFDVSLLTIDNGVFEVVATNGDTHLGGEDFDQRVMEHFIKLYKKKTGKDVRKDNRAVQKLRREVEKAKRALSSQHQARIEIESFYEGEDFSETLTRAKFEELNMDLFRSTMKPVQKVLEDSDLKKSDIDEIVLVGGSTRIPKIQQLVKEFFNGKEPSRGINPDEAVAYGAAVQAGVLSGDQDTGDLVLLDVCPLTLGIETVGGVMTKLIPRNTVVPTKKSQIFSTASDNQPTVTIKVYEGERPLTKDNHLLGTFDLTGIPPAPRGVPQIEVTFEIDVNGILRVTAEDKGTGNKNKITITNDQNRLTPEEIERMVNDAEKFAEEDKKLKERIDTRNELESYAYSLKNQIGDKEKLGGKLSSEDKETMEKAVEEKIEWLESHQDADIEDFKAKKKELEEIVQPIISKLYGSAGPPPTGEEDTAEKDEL", "type": "cell-based"}, "caspase-3/7": {"test_system": "caspase-3/7", "type": "cell-based, human"}, "F98/EGFR-Dox cells": {"test_system": "F98/EGFR-Dox cells", "type": "cell-based, rat"}}, "note": "Entries after “also recorded” stand apart in the source; their conditions may differ.", "data": [{"molecule": "B1", "values": [{"measurement": "IC50", "setting": "parental F98 cells", "value": "~2.5", "unit": "nM"}, {"measurement": "effect of excess EGF on EGF-SubA toxicity", "setting": "MDA231luc cells [1]", "value": "inhibited by excess of EGF; also recorded: excess of free EGF rescue cells"}, {"measurement": "fold lower sensitivity of MDA-231luc cells vs F98/EGFR cells", "setting": "MDA231luc cells [1]", "value": 10, "unit": "fold"}, {"measurement": "EGFR tyrosine autophosphorylation", "setting": "EGFR", "value": "induced EGFR tyrosine autophosphorylation in the same concentration range"}, {"measurement": "effect on bortezomib-induced cell growth inhibition", "setting": "MDA231luc cells [2]", "value": "enhances cell growth inhibition"}, {"measurement": "effect on thapsigargin-induced cell growth inhibition", "setting": "MDA231luc cells [2]", "value": "enhances cell growth inhibition"}, {"measurement": "accumulation of 150-kDa and 120-kDa fragments of α-fodrin", "setting": "α-fodrin", "value": "Greater accumulation"}, {"measurement": "sensitivity of MDA231luc-Dox cells relative to parental MDA231luc", "setting": "MDA231luc-Dox cells", "value": "Enhanced sensitivity; also recorded: significantly more sensitive"}, {"measurement": "cleavage of BiP in combination treatment", "setting": "GRP78/BiP", "value": "effective cleavage of BiP"}, {"measurement": "cleavage of intracellular GRP78/BiP", "setting": "GRP78/BiP", "value": "appearance of a 28-kDa fragment; also recorded: selectively cleaves intracellular BiP"}, {"measurement": "total DEVD- and specific caspase-3/7 activity", "setting": "caspase-3/7", "value": "significant increase"}, {"measurement": "sensitivity of F98/EGFR-Dox cells relative to parental F98/EGFR", "setting": "F98/EGFR-Dox cells", "value": "Enhanced sensitivity; also recorded: significantly more sensitive"}]}]}
